# Source: patent US20160038607A1 (UNIVERSITY OF NOTRE DAME DU LAC, published 2016)
# Bridges are numbered along the chain shown (N, C = ends). Where no end group is shown, it is not given here.
# Tests used:
# [1] = target: T1, Human Epidermal Growth Factor Receptor 2 (HER2) (human, UniProt P04626 23-1255); experiment: flow cytometry, fluorescein labeled peptide on BT-474 cells, on ice
# T1 construct: whole, on cells; also called HER2 receptor
# Experimental: (§1) For HER2 expression assays, cells were incubated with primary antibody in binding buffer on ice for 1 hour and washed twice. Fluorescein conjugated secondary antibody was added for 1 hour on ice, samples were washed, and analyzed on Guava easyCyte 8HT flow cytometer (Millipore). Isotype matched antibodies were used as negative controls. For cell-based peptide binding assays, cells were incubated with increasing concentrations of fluorescein-conjugated peptides for 2 hours on ice. Samples were washed twice and analyzed on Guava easyCyte 8HT flow cytometer.
# [2] = target: T1, Human Epidermal Growth Factor Receptor …; experiment: flow cytometry, fluorescein labeled peptide on SK-BR-3 cells, on ice
# Experimental: as §1
# [3] = target: T1, Human Epidermal Growth Factor Receptor …; experiment: cell-based or functional assay
Kd [1] [nM],Kd [2] [nM],"cellular uptake of liposomes at 2% peptide density, fold enhancement [3] [fold]","cellular uptake of liposomes by BT-474 and SK-BR-3 cells, 3 h (flow cytometry), fold greater than control [3] [fold]","cellular uptake of liposomes by BT-474 cells at 24 h, fold greater than control liposomes [3] [fold]","cellular uptake of liposomes by SK-BR-3 cells at 24 h, fold greater than control liposomes [3] [fold]",Binder
1970,1750,,,,,"YCDGFYACYMDV (disulfide 2-8 (inferred); also: fluorescein label, position not given here) [HER2-antagonist peptide (HER2-pep), fluorescein labeled]"
,,~10,~9,~5,~4,YCDGFYACYMDV (disulfide 2-8 (inferred); not fully specified (N-terminus); also: displayed on PEG350-coated liposomes) [HER2-pep-EG12-PA conjugate on PEG350 coated liposomes (95:10:3:2 HSPC:CHOL:PEG350:HER2-pep)]
